Results from patent US7250269B2, “Composition for assaying glycoprotein” (Asahi Kasei Pharma Corporation, priority 2001, dated 2007).

Columns and labels:
[1] = Isoelectric point by focusing electrophoresis; assay type: physicochemical; conditions: 700 V for 40 hours at 4° C.; carrier ampholyte
Experimental: The isoelectric point determined by fractionating the enzyme after applying a constant voltage of 700 V for 40 hours at 4° C. in a focusing electrophoresis using carrier ampholyte, followed by measuring the enzyme activity of each fraction, was pH 4.3±0.2.

[2] = FOD enzyme activity / substrate specificity on glycated valine; assay type: biochemical
Experimental: (§1) 164 strains of mutant colonies obtained in Example 15 were cultured for 16 hours at 30° C. in 1.5 ml of a 3.7% BHI liquid medium (manufactured by DIFCO Co.) containing 50 μg/ml of ampicillin and 1 mM of IPTG. 1 ml of the culture broth was centrifuged (15,000 G for one minute at 4° C.) to collect cells. 200 μl of 10 mM Tris-HCl buffer solution (pH 8.0) was added to the collected cells. After crushing the cells using an ultrasonic breaker, the mixture was centrifuged (14,000 G for five minutes at 4° C.) to obtain a cell extract as a supernatant.
(§2) The glycated amino acid substrate specificity of FOD-mutated recombinant contained in the cell extract prepared in Example 16 was measured using the above-mentioned FOD enzyme activity measuring method.
(§3) Synthesis of an oligonucleotide having the base sequence of 1-27 in the sequence table Sequence ID No. 7 was consigned to an outside source (BEX Co., Ltd.). The oligonucleotide was subjected to the site-directed mutagenesis using the Mutan-K kit (manufactured by Takara Shuzo Co., Ltd.) according to the manual attached to the kit. The mutant gene obtained was incorporated again into the expression plasmid pTV119N, introduced into Escherichia coli host, and cultured at 30° C. for 16 hours in a 3.7% BHI liquid medium containing 50 μg/ml of ampicillin and 1 mM of IPTG to produce mutant FOD protein.

[3] = FOD enzyme activity / substrate specificity on glycated lysine; assay type: biochemical
Experimental: as §1, §2, §3

Substrate specificity FV [2]: 0% | Substrate specificity ZFL [3]: 100%
B1: Reactive 327th amino acid Tryptophan: mutant obtained by replacing the lysine with tryptophan, named FOD-W; plasmid pcmFOD3; Sequence ID No. 2 (protein)
chain: ASTLTKQSQILIVGGGTWGCSTALHLARRGYTNVTVLDVNRIPSPISAGHDVNKLAGRLSTADSKGDDEDSIWKALSYAAAQGWLHDPVFQPFCHNTGSVVAGSTPKSIKQLVEDEIGDDIDQYTPLNTAEDFRKTMPEGILTGNFPGWKGFYKPTGSGWVHARKAMKAAFEESERLGVKFITGSPEGKVESLIFEDGDVRGAKTADGKEHRADRTILSAGASAEFFLDFENQIQPTAWTLGHIQMTPEETKLYKNLPPLFNINQGFFMEPDEDLHQLKMCDEHPGYCNWVEKPGSKYPQSIPFAKHQVPTEAERRMKQFLKDIMPQLADRPLVHARICWCADTQDRMFLITYHPRHPSLVIASGDCGTGYWHITSIGKFISDCMEGTLEERFAKFWRWRPEKFTEFWGKDPLDRFGADDKIMDLPKSDVEGWTNIKNDI
modifications: sequence derived from Fusarium oxysporum IFO- 9722
Isoelectric point [1]: 4.3±0.2 | Optimum temperature (maximum activity) (40 mM Tris-HCl buffer solution (pH 7.5)): 50 °C | Optimum pH (maximum activity) (100 mM buffers pH 4.4-10.3): 7.5 | Reactivity ratio, glycated lysine / glycated valine ([3]; glycated lysine / glycated valine): 2980
